PMC9848473

Target: Bacillus subtilis Rel N-terminal domain region (RelBs^NTD; residues 1 to 373) (B. subtilis)
Assay: ITC; DarB or DarB variant (200 uM) in the syringe titrated into RelBs^NTD or variant (15 uM) in the cell; 25 °C; 50 mM Hepes pH 7.5, 500 mM KCl, 500 mM NaCl, 10 mM MgCl2, 1 mM TCEP, 0.002% mellitic acid

Kd [µM]	Binder
10.6	Bacillus subtilis DarB E34R (natural protein) MISLQSDQLLEATVGQFMIEADKVAHVQVGNNLRHALLVLTKTGYTAIPVLDPSYRLHGLIGTNMIMNSIFGLERIEFEKLDQITVEEVMLTDIPRLHINDPIMKGFGMVINNGFVCVENDEQVFEGIFTRRVVLKELNKHIRSLNK
8.9	Bacillus subtilis DarB E74G/R75G (natural protein) MISLQSDQLLEATVGQFMIEADKVAHVQVGNNLEHALLVLTKTGYTAIPVLDPSYRLHGLIGTNMIMNSIFGLGGIEFEKLDQITVEEVMLTDIPRLHINDPIMKGFGMVINNGFVCVENDEQVFEGIFTRRVVLKELNKHIRSLNK
